Patent publication US20230043289A1 (AC IMMUNE, published 2023)
Where no end group is shown, it is not given here.

Tests used:
MAPT(10-24) = biological target: T1, MAPT(10-24) (human, also: biotinylated (position not given here)); experiment: ELISA on Tau 15-mer peptides
T1 construct: also called Tau fragment 10-24
T1 peptide: VMEDHAGTYGLGDRK

Tau fragment 1-15 = biological target: T2, Tau fragment 1-15 (human, UniProt P10636-8 1-15); experiment: ELISA on Tau 15-mer peptides
T2 construct: range 1-15
T2 peptide (looked up): MAEPRQEFEVMEDHA

Tau fragment 19-33 = biological target: T3, Tau fragment 19-33 (human, UniProt P10636-8 19-33); experiment: ELISA on Tau 15-mer peptides
T3 construct: range 19-33
T3 peptide (looked up): GLGDRKDQGGYTMHQ

Tau fragment 37-51 = biological target: T4, Tau fragment 37-51 (human, UniProt P10636-8 37-51); experiment: ELISA on Tau 15-mer peptides
T4 construct: range 37-51
T4 peptide (looked up): GDTDAGLKESPLQTP

Tau fragment 28-42 = biological target: T5, Tau fragment 28-42 (human, UniProt P10636-8 28-42); experiment: ELISA on Tau 15-mer peptides
T5 construct: range 28-42
T5 peptide (looked up): GYTMHQDQEGDTDAG

[1] = biological target: T6, Human Tau monomer (recombinant 2N4R isoform, amino acids 2-441) (human, UniProt P10636-8 2-441); experiment: SPR 25C, hIgG captured, Tau monomer analyte
T6 construct: range 2-441; also called monomeric human Tau; human monomer Tau protein

[2] = biological target: T6, Human Tau monomer (recombinant 2N4R …); experiment: SPR, hIgG captured, Tau monomer 3.1-100 nM
Procedure: To assess the impact of N²⁸ deamidation on the affinity for human Tau, it was desirable to obtain two samples with widely separated N²⁸ deamidation status. Hu37D3-H9.v5 hIgG4.S228P was incubated at 40° C. for two weeks at a concentration of 1 mg/ml in Phosphate Buffered Saline, pH 7.4. Deamidation of the N²⁸G²⁹ motif was measured using LC-MS/MS. […] The stressed and unstressed antibodies were analyzed for Tau binding by surface plasmon resonance (Biacore) using the GE Biacore human IgG capture kit and a Series S CM5 chip. The hIgG were diluted to 2 μg/ml in 10 mM HEPES pH7.4, 150 mM NaCl, 0.05% Tween 20 (running buffer, HBSP) and captured at a flow rate of 10 μl/min for 15 seconds (t0 sample) or 17 seconds (t2 sample). […] Between cycles the surface was regenerated using a 30 second injection of 3M Magnesium Chloride at 10 μl/min. A 1:1 binding model was fitted to the data using instrument defaults, including local fitting of the “RI” parameter.

[3] = biological target: T6, Human Tau monomer (recombinant 2N4R …); experiment: SPR 37C, hIgG captured, Tau monomer 0.1-33.3 nM
Procedure: Affinity for human and cynomolgus monkey Tau was measured at 37° C. using a Biacore T200 instrument, the GE Biacore human IgG capture kit and a Series S CM5 Sensor Chip. Antibodies were diluted to 1 μg/ml in running buffer HBS-EP (10 mM HEPES pH7.4, 150 mM NaCl, 1 mM EDTA, 0.05% Tween 20) and captured at a flow rate of 10 μl/min for 15 seconds. Data was collected for the binding of human and cynomolgus Tau monomer, each of which was injected at 0, 0.1, 0.4, 1.2, 3.7, 11.1, and 33.3 nM, using a flow rate of 30 μl/min, a contact time of 300 s, and a dissociation time of 900 s. Between cycles, the surface was regenerated with 3M magnesium chloride. Data was fit to a 1:1 binding model using BIAEvaluation software.

T6 sequence (P10636 other isoform, or with tags, fused parts or gaps limits assumed): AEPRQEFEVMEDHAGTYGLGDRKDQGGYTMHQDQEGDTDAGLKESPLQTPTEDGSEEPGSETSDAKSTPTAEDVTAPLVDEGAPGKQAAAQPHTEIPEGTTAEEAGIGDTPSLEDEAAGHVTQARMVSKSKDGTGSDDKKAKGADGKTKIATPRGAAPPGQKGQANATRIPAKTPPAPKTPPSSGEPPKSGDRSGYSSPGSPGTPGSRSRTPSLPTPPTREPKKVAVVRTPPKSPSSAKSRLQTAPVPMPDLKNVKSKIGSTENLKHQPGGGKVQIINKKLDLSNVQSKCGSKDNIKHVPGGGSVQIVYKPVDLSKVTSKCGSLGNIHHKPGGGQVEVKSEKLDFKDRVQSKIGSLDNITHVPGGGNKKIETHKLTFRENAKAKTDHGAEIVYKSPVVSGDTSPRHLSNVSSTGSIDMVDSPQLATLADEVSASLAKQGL

B1: 89F4-A1 (antibody, IgG2a, V domains shown)
VH: EVQLVESGGGLVQPKGSLKLSCAASGFTFNTYAMNWVRQAPGKGLEWVARIRSKSNNYAAYFADSVKDRFTISRDDSQTMLYLQMNNLKSEDTAMYYCVSGGNYVPFAYWGQGTLVTVSA
VL: NIMMTQSPSSLAVSAGEKVTMSCKSSQSVFYSSEQRNYLAWYQQKPGQSPKLLISWASTRESGVPDRFTGSGSGTDFTLTISSVQGEDLAVYYCHQYLSSFTFGSGTKLEIK
notes: Ex.2 hybridoma supernatant; Ex.3 recombinant mIgG2a/kappa
binding result (MAPT(10-24)): no binding
binding result (Tau fragment 1-15): no binding
binding result (Tau fragment 19-33): no binding

B2: 123E9-A1 (antibody, IgG2a, V domains shown)
VH: EVQLQQSGPELVKPGASVKMSCKASGYTFTDYYMKWVKQSHGKSLEWIGDIDPNNGGTSYNQKFKGKATLTVDKSSSTAYMQLNSLTSEDSAVYYCARSAGFGDSFSFWGLGTLVTVSA
VL: DVLMTQTPLSLPVSLGDQASISCRSSQSIVHSNGNTYLEWYLQKPGQSPKLLIYKVSNRFSGVPDRFSGSGSGTDFTLKISRVEAEDLGFYYCFQGSHVPPTFGGGTKLEIK
notes: as for B1
binding result (Tau fragment 37-51): no binding
binding result (MAPT(10-24)): no binding
binding result (Tau fragment 1-15): no binding

B3: 19H6-F7 (antibody, IgG2a, V domains shown)
VH: EVQLVESGGDLVKPGGSLKLSCAASGFTFSSYGMSWVRQTPDKRLEWVATISSGGTYTYYPDSVKGRFTISRDNAKNTLYLQMSSLKSEDTAMYYCAPSYDGAMDYWGQGTSVTVSS
VL: DVLMTQTPLSLPVSLGDQASISCRSSQSIVHSNGNTYLEWYLQKPGQSPKLLIYKVSNRFSGVPDRFSGSGSGTDFTLKISRVEAEDLGVYYCFQGSLVPWTFGGGTKLEIK
notes: as for B1
binding result (Tau fragment 37-51): no binding
binding result (Tau fragment 1-15): no binding
binding result (Tau fragment 19-33): no binding
binding result (Tau fragment 28-42): no binding

B4: 3A4-H4 (antibody, IgG2a, V domains shown)
VH: EVQLVESGGDLVKPGGSLKLSCAASGFTFSSYGMSWVRQTPDKRLEWVATISSGGTYTYYPDSVKGRFTISRDNAKNTLYLQMSSLKSEDTAMYFCATSYDGAMDYWGQGTSVTVSS
VL: DVLMTQTPLSLPVSLGDQASISCRSSQNIVHSNGNTYLEWYLQKPGQSPKLLIYKVSNRFSGVPDRFSGSGSGTDFTLKISRVEAEDLGVYYCFQGTLVPWTFGGGTKLEIK
notes: as for B1
binding result (Tau fragment 37-51): no binding
binding result (Tau fragment 1-15): no binding
binding result (Tau fragment 19-33): no binding
binding result (Tau fragment 28-42): no binding

B5: 54C1-H11 (antibody, IgG2a, V domains shown)
VH: EVQLVESGGDLVKPGGSLKVSCVASGFTFRSYGMSWVRQTPDKRLDWVATISSGGNYTYYPDSVKGRFTISRDNAKNTLYLQMSSLKSEDTAMYYCASSYSGAMDYWGQGTSVTVSS
VL: DTVMTQSPLSLPVSLGDQASISCRSSQSIVHSNGNTYLEWYLQKPGQSPKLLIYTVSNRFSGVPDRFSGSGSGTDFTLKISRVEAEDLGVYYCFQGSHVPWTFGGGTKLEIK
notes: as for B1
binding result (Tau fragment 37-51): no binding
binding result (Tau fragment 1-15): no binding
binding result (Tau fragment 19-33): no binding
binding result (Tau fragment 28-42): no binding

B6: 94B2-C1 (antibody, IgG2a, V domains shown)
VH: EVQLQQSGPELVKPGASMKISCKASGYSLTGYTMNWVKQSHGKNLEWIGLISPYNGVTSYNQKFKGKATLTVDKSSNTAYMELLSLTFEDSAVYYCARQGAYWGQGTLVTVSA
VL: not shown
notes: as for B1
binding result (Tau fragment 37-51): no binding
binding result (Tau fragment 28-42): no binding

B7: hu37D3-H9.v5 hIgG4.S228P, stressed (t = 2 weeks) (antibody, V domains shown)
VH: EVQLVESGGGLVQPGGSLRLSCAASGLIFRSYGMSWVRQAPGKGLEWVATINSGGTYTYYPDSVKGRFTISRDNSKNTLYLQMNSLRAEDTAVYYCANSYSGAMDYWGQGTLVTVSS
VL: EDVLTQTPLSLPVTPGQPASISCRSSQSIVHSNGNTYFEWYLQKPGQSPQLLIYKVSNRFSGVPDRFSGSGSGTDFTLKISRVEAEDVGVYYCFQGSLVPWTFGQGTKVEIK
modifications: light chain N28 (Kabat) partly deamidated: 43.1% increase after 2 weeks at 40 C in PBS pH 7.4
notes: human IgG4 with S228P, kappa; thermally stressed sample, a mixed population
Kd [1]: 1500 pM
Kd [2]: 700 pM

B8: hu37D3-H9.v76 (antibody, V domains shown)
VH: EVQLVESGGGLVQPGGSLRLSCAASGLIFRSYGMSWVRQAPGKGLEWVATINSGGTRTYYPDSVKGRFTISRDNSKNTLYLQMNSLRAEDTAVYYCANSYSGAMDYWGQGTLVTVSS
VL: DDLLTQTPLSLPVTPGQPASISCRSSQSIVHSNGNTYLEWYLQKPGQSPQLLIYKVSNRFSGVPDRFSGSGSGTDFTLKISRVEAEDVGVYYCFQGTLVPWTFGQGTKVEIK
Kd [3]: 100 pM
koff [3]: 0.000892 s⁻¹
kon [3]: 6.94e+06 M⁻¹ s⁻¹

B9: hu37D3-H9.v83 (antibody, V domains shown)
VH: EVQLLESGGGLVQPGGSLRLSCAASGLIFRSYGMSWVRQAPGKGLEWVATINSGGTRTYYPDSVKGRFTISRDNSKNTLYLQMNSLRAEDTAVYYCANSYSGAMDYWGQGTLVTVSS
VL: DDLLTQSPLSLPVTLGQPASISCRSSQSIVHSNGNTYLEWYQQRPGQSPRLLIYKVSNRFSGVPDRFSGSGSGTDFTLKISRVEAEDVGVYYCFQGTLVPWTFGQGTKVEIK
Kd [3]: 100 pM
koff [3]: 0.000818 s⁻¹
kon [3]: 6.19e+06 M⁻¹ s⁻¹

B10: hu37D3-H9.v93 (antibody, V domains shown)
VH: EVQLVESGGGLVQPGGSLRLSCAASGLIFRSYGMSWVRQAPGKGLEWVATINSGGTRTYYPDSVKGRFTISRDNSKNTLYLQMNSLRAEDTAVYYCANSYSGAMDYWGQGTLVTVSS
VL: EDLLTQSPSSLSASVGDRVTITCRSSQSIVHSNGNTYLEWYQQKPGKSPKLLIYKVSNRFSGVPSRFSGSGSGTDFTLTISSLQPEDFATYYCFQGTLVPWTFGQGTKVEIK
Kd [3]: 100 pM
koff [3]: 0.00102 s⁻¹
kon [3]: 6.89e+06 M⁻¹ s⁻¹
